Assay results from patent publication US20070203061, “Adiponectin expression-inducing agents and uses thereof” (TOUDAI TLO, LTD, published 2007).

Target: FLAG-KLF9 (UniProt O35739 SEQ:1-244)
Assay: EMSA; purified FLAG-KLF9 with 32-bp fragment, similar to adipocyte nuclear extract
Conditions: tags: FLAG; label: 32P
Method: […] were prepared from 293T cells, 3T3L1 adipocytes, or white adipose tissue according to a reported method (Almoguera, C. et al., J. Biol. Chem. 277, 43866-43872 (2002)). Double-stranded oligonucleotides used for the electrophoretic mobility shift assay were prepared by annealing both strands. Labeled probes (3,000 to 10,000 cpm) and the nuclear extracts were mixed in a reaction solution (20 μL: 10 mM Tris-HCl (pH7.6), 50 mM KCl, 0.05 mM EDTA, 2.5 mM MgCl₂, 8.5% glycerol, 1 mM dithiothreitol, 0.5 μg/mL of poly(dI-dC), 0.1% Triton X, and 1 mg/mL of skim milk), and incubated for 30 minutes on ice. The DNA-protein complexes were fractionated on a 4.6% polyacrylamide gel at 140 V for 1 hour at 4° C. The Gel was dried and exposed using a BAS2000 filter with BAStation software (Fuji Photo Film).

FLAG-KLF9, sequence (O35739 other isoform, or with tags, fused parts or gaps): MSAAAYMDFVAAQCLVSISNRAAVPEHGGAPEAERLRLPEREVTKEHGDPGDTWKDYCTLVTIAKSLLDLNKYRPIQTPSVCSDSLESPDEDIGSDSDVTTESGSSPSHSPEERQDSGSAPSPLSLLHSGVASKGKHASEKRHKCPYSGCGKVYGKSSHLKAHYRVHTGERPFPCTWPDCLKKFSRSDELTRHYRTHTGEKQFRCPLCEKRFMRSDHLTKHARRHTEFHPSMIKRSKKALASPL

B1: adiponectin promoter -188/-157 32-bp element (dsDNA)
DNA 1: GAAGCCCAAGCTGGGTTGTACCAGGTTCCCTA
DNA 2: TAGGGAACCTGGTACAACCCAGCTTGGGCTTC
B1: binds.
